Paper PMC3419727, “Identifying the Hotspots on the Top Faces of WD40-Repeat Proteins from Their Primary Sequences by β-Bulges and DHSW Tetrads” (PLoS ONE, 2012)
Positions count from the first letter of the chain named.

Key:
Assay in all cases: ITC; Fep1 (~1.4 mM) injected, 2 µl each time, into Tup11 WT or mutant (~0.2 mM); 25°C; 1×PBS pH 7.4, 150 mM NaCl; iTC200 (MicroCal); Fep1 into buffer subtracted as background
Conditions in all cases: both partners purified
[1] = biological target: T1, S. japonicus Tup11 WD40 domain (301–630) Tyr508Ala (S. japonicus, UniProt B6JV84 301-630, Tyr508 substituted by Ala)
T1 construct: Tup11, S. japonicus, WD40 domain, amino acids 301-630
T1 sequence (looked up): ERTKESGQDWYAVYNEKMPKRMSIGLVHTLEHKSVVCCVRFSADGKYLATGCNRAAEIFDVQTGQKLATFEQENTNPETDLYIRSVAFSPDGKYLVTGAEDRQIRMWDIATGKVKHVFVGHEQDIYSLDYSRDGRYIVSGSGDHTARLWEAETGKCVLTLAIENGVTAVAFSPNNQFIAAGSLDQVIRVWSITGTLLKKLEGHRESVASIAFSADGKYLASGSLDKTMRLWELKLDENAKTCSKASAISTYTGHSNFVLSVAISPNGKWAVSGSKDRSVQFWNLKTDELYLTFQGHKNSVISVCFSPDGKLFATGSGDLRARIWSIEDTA

[2] = biological target: T2, S. japonicus Tup11 WD40 domain (301–630) Lys575Ala (S. japonicus, UniProt B6JV84 301-630, Lys575Ala)
T2 construct: Tup11, S. japonicus, WD40 domain, amino acids 301-630
T2 sequence (looked up): T1 sequence (looked up) with A208Y, K275A

[3] = biological target: T3, S. japonicus Tup11 WD40 domain (301–630) Cys337Ala (S. japonicus, UniProt B6JV84 301-630, Cys337 substituted by Ala)
T3 construct: Tup11, S. japonicus, WD40 domain, amino acids 301-630; also called Cyc337
T3 sequence (looked up): T1 sequence (looked up) with C37A, A208Y

[4] = biological target: T4, S. japonicus Tup11 WD40 domain (amino acids 301–630), wild type (S. japonicus, UniProt B6JV84 301-630)
T4 construct: Tup11, S. japonicus, WD40 domain, amino acids 301-630; also called Tup11 WT
T4 sequence (looked up): T1 sequence (looked up) with A208Y

[5] = biological target: T5, S. japonicus Tup11 WD40 domain (301–630) Thr467Ala (S. japonicus, UniProt B6JV84 301-630, Thr467 substituted by Ala)
T5 construct: Tup11, S. japonicus, WD40 domain, amino acids 301-630
T5 sequence (looked up): T1 sequence (looked up) with T167A, A208Y

B1: C-terminal region of S. pombe Fep1 (amino acids 319–564) (domain or fragment, UniProt Q10134 319-564, looked up)
chain: AAGEPDNNGKVYYSYGPTQEQSILPLPENKHEGLPPYQNEYVPNGIRANQVVYPGQLVAVGNDSSKQLSESTTSNTDNNGVATANQSNPLGMKFHLPPILPVGESVCLPPRTSAKPRIAEGIASLLNPEEPPSNSDKQPSMSNGPKSEVSPSQSQQAPLIQSSTSPVSLQFPPEVQGSNVDKRNYALNVLSQLRSQHDLMIQELHNLNQHIQQIDEWLRSSDNENMASEHIKSSTPAVVASGALQT
notes: Fep1, GATA-factor, S. pombe, C-terminal region, amino acids 319-564
B1 was tested, and the binding result [1] was “binds”, the “reduction of binding free energy against wild type” value [2] was about 7.95 kJ/mol and the binding result [3] was “binds”. The Kd [4] was about 10 µM and the binding result [5] was “binds”.
